The record followed here is patent US20240182575A1 (Ablynx, published 2024).

Assay [1] has as its target T1, cynomolgus monkey CTLA4 on stably transfected CHO-K1 cells (human CTLA4 cDNA with S13N, I17T and L105M) (human backbone with cynomolgus monkey …, UniProt P16410 36-223).
T1 chain: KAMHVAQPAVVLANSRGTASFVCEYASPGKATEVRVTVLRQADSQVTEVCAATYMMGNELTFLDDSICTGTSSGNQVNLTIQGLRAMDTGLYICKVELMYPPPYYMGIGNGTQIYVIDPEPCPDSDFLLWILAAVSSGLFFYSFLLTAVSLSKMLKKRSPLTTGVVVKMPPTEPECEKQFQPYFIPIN
The experiment in a line: FACS, direct binding titration on cyno CTLA4 CHO cells (head prints IC50). On the technique in general: In flow cytometry, cells or beads pass a laser one at a time.

Assay [2] deals with T2, HuCTLA4-HuIgG1 (fusion protein of the extracellular part of human CD152 and human Fc gamma 1, CTLA4-Ig) (human, UniProt P16410 36-161).
T2 construct: extracellular domain; also called CTLA4-hFc; CTLA4-Fc; not shown: human Fc gamma 1
The experiment in a line: SPR, Biacore T100, CTLA4-Ig amine-coupled. On the procedure:
Affinity constants (Kd) of individual purified Nanobody clones were determined by surface plasmon resonance on a Biacore T100 instrument. […] Remaining reactive groups were inactivated using ethanolamine. […] Each sample was injected for 2 min at a flow rate of 45 μl/min to allow for binding to chip-bound antigen. Next, binding buffer without Nanobody was sent over the chip at the same flow rate to allow for dissociation of bound Nanobody. After 2 min, remaining bound analyte was removed by injecting regeneration solution (10 mM Glycine/HCl pH 1.5). Binding curves obtained at different concentrations of Nanobody were used to calculate KD values. For some clones, only a single undetermined concentrations of Nanobody was injected.
In general terms: In SPR one partner is held on a chip, and binding of the other changes the refractive index at the surface.

The target in assay [3] is T2, HuCTLA4-HuIgG1 (fusion protein of the …). As to the kind of experiment: alphascreen; competitor biotinylated HuCD80-MuIgG2a. The source says: Individual clones were scored as putative CTLA4/CD80 interaction inhibiting if the presence of the periplasmic extract decreased the fluorescent signal of the acceptor beads.
The target of assay [4] is T3, human CTLA4 (Y201 mutated to valine) on stably transfected CHO-K1 cells (human, UniProt P16410 36-223).
T3 construct: whole, on cells; the mutation of the intracellular position Y201 keeps the protein on the membrane; also called human CTLA4 overexpressing CHO cells; human CTLA4 transfectant
As to the kind of experiment: FACS, direct binding titration on human CTLA4 CHO cells (head prints IC50). On the procedure:
Binding of putative CTLA4 reactive Nanobodies clones was detected using unlabeled anti-c-myc tag mouse monoclonal antibody 9E10, followed by a phycoerythrin conjugated F(ab′)2 derived from goat-anti-mouse IgG (human and bovine crossabsorbed), and read on a BD FACSarray instrument. Dead cells were excluded from the analysis by gating out TOPRO3 vital dye positive scoring cells. Binding of the Nanobodies to cells was evaluated in BD FACSarray control software as PE channel histograms.

In assay [5] the target is T3, human CTLA4 (Y201 mutated to valine) on …. As to the kind of experiment: FACS competition, human CTLA4 CHO cells; blocked ligand CD80-Fc. From the text:
The potency of selected Nanobodies to inhibit the interaction of CTLA4 with CD80 was also ranked using FACS based screening method. […] This concentration was previously determined to be the minimal amount required to saturate all CD80 binding sites on both human and cyno CTLA4 expressing CHO cell clones in the absence of any CTLA4 interaction blocking proteins. […] Dead cells were stained by including TOPRO3 vital dye in the final resuspension buffer. All samples were read on a BD FACSarray instrument. Dead cells were excluded from the analysis by gating out TOPRO3 vital dye positive scoring cells.

Assay [6] addresses T4, rhB7-H2-Fc (fusion protein of the extracellular part of human B7-H2 (ICOSL) and mouse Fc gamma 1, R&D Systems … (human; mouse, UniProt O75144 19-256; P01868 98-324 = IgG part, limits assumed).
T4 construct: extracellular domain;domain: Fc; bought; also called B7-H2 ectodomain
As to the kind of experiment: competition ELISA, coated B7-H2; blocked ligand ICOS-biotin. For orientation: An ELISA detects its analyte on a solid surface through an enzyme-linked reagent.

The target in assay [7] is T4, rhB7-H2-Fc (fusion protein of the …). The experiment in a line: ELISA, coated B7-H2. On the procedure: Next, 10 μl of periplasmic extract containing Nanobody of the different clones in 100 μl 2% Marvel PBST were allowed to bind to the immobilized antigen. […] Binding specificity was determined based on OD values compared to controls having received no Nanobody (low control).
After expression, the Nanobodies were purified via the His-tag on Talon beads.

The target in assay [8] is T5, rhB7H1-Fc (fusion protein of the extracellular part of human B7-H1 (PD-L1) and mouse Fc gamma 1, R&D Systems … (human; mouse, UniProt Q9NZQ7 19-238; P01868 98-324 = IgG part, limits assumed).
T5 construct: extracellular domain;domain: Fc; bought; also called B7-H1 ectodomain
As to the kind of experiment: ELISA, coated B7-H1.

Assay [9] has as its target T5, rhB7H1-Fc (fusion protein of the …). The experiment in a line: competition ELISA, coated B7-H1; blocked ligand PD-1-biotin. On the procedure:
Next, 0.5 μg/ml of PD-1 was preincubated with a dilution series of purified Nanobody.

The target in assay [10] is T6, rhPDL2-Fc (fusion protein of the extracellular part of human PD-L2 and mouse Fc gamma 1, R&D Systems Cat … (human; mouse, UniProt Q9BQ51 20-220; P01868 98-324 = IgG part, limits assumed).
T6 construct: extracellular domain;domain: Fc; bought; also called PD-L2 ectodomain
The experiment in a line: ELISA, coated PD-L2. On the procedure: In short, 5 μg/ml PD-L2 ectodomain (R&D Systems, Minneapolis, US, Cat #1224-PL) was immobilized on maxisorp microtiter plates (Nunc, Wiesbaden, Germany) and free binding sites were blocked using 4% Marvel in PBS. Next, 10 μl of periplasmic extract containing Nanobody of the different clones in 100 μl 2% Marvel PBST were allowed to bind to the immobilized antigen. […] Binding specificity was determined based on OD values compared to controls having received no Nanobody (low control).
After expression, the obtained Nanobodies were purified via the His-tag on Talon beads.

Assay [11] deals with T7, HuCD86-MuIgG2a (fusion protein of the extracellular part of human CD86 and mouse Fc gamma 2a, Ancell Cat … (human; mouse, UniProt P42081 24-247; P01863 98-330 = IgG part).
T7 construct: extracellular domain;domain: Fc; bought; also called B7-2
As to the kind of experiment: competition ELISA, coated CD86-Ig; blocked ligand CD28-Ig.

Assay [12] concerns the target T6, rhPDL2-Fc (fusion protein of the …). As to the kind of experiment: competition ELISA, coated PD-L2; blocked ligand PD-1-biotin. On the procedure: In short, 2 μg/ml PD-L2 ectodomain (R&D Systems, Minneapolis, US, Cat #1224-PL) was immobilized on maxisorp microtiter plates (Nunc, Wiesbaden, Germany) and free binding sites were blocked using 4% Marvel in PBS. Next, 0.5 μg/ml of PD-1 was preincubated with a dilution series of purified Nanobody.

T6 sequence (Q9BQ51 other isoform, or with tags, fused parts or gaps limits assumed): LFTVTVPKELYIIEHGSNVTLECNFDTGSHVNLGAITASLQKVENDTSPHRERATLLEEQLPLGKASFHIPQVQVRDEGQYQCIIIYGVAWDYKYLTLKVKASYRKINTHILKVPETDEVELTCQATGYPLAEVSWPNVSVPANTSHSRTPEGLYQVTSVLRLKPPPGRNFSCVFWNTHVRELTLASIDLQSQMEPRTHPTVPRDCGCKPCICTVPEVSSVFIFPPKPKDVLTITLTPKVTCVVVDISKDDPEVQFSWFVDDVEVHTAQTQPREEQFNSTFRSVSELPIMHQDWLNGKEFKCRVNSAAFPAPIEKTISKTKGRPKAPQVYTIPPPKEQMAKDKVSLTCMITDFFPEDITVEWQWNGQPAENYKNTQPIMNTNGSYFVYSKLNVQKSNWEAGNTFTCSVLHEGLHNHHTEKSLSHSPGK
T5 sequence (Q9NZQ7 other isoform, or with tags, fused parts or gaps limits assumed): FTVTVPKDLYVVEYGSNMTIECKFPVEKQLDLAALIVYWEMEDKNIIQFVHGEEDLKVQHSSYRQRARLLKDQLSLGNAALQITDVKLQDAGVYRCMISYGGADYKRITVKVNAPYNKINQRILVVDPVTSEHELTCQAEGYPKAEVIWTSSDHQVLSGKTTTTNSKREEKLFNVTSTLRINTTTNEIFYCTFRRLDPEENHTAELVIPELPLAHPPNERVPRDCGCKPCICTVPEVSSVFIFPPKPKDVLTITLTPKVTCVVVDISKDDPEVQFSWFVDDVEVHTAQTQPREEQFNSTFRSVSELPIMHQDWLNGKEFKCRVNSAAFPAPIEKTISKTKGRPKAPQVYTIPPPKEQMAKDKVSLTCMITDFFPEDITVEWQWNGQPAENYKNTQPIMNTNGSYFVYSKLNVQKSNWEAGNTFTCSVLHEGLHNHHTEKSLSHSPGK
T2 sequence (P16410 36-161 limits assumed): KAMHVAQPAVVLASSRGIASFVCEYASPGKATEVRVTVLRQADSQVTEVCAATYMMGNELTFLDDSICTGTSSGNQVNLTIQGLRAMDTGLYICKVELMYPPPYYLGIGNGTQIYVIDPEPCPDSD
T4 sequence (O75144 other isoform, or with tags, fused parts or gaps limits assumed): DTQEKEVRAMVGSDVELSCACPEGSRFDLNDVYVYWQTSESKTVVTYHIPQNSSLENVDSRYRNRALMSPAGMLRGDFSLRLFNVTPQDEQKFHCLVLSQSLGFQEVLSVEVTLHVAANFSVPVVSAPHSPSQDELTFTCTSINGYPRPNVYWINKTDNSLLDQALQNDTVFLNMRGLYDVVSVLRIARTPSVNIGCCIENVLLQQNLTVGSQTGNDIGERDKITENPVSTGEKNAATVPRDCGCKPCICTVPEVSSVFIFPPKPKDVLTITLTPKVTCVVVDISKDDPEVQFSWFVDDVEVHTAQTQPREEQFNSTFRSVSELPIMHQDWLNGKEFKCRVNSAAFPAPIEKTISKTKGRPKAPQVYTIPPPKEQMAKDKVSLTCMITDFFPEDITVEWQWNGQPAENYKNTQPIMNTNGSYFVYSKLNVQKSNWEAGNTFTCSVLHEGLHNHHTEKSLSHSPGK
T7 sequence (P42081 other isoform, or with tags, fused parts or gaps limits assumed): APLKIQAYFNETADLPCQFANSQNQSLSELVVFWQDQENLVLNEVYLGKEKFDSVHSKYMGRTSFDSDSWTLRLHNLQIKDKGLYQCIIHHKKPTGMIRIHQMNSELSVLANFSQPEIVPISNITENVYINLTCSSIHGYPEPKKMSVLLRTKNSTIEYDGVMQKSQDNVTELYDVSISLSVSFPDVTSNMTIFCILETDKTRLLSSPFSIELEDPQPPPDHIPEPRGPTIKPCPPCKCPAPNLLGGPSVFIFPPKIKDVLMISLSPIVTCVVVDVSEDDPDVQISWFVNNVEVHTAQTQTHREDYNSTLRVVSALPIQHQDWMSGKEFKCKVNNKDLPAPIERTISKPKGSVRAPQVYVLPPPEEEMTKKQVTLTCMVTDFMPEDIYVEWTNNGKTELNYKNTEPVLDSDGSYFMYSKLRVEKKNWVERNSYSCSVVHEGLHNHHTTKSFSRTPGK

B1: 4CTLAPMP2G9 (VHH)
VHH: EVQLVKSGGQLVQAGGSLRLSCAATGRTYNSYPLGWFRQAPGKEREFVAAISASGTLRAYADSVKGRFTISRDSAKNTVYLQMNNLKPEDTAVYYCARARSVGWRASHHLSDYDNWGQGTQVTVSS
notes: short label tied to the entry by the clone code only; not shown: C-terminal c-myc tag and His6 tag
As a reminder, the IC50 is the concentration that gives 50% inhibition. A word on the Kd: it is the constant that tells how readily two partners part at equilibrium. Usually koff stands for the first-order rate constant of dissociation. As a reminder, the kon is a measure of how fast the partners come together. B1: the IC50 in assay [1] was determined as 2.66 nM; in [3], 2.01 nM; in [4], 2.47 nM. This molecule also came in with a Kd in assay [2] of 1.69 nM. Also, in [2], the koff worked out at 0.00732 s⁻¹. For the same molecule, the kon in [2] amounted to 4.35e+06 M⁻¹ s⁻¹.

B2: 4CTLAPMP02F2 (VHH)
VHH: EVQLMESGGGLVQTGGSLRLSCAASGRTFSNYTMGWFRQAPGKDREFVAAISRSGSLKAYADSVKGRFTPSRDNAKKMAYLQMNSLKPEDTAVYYCAAAPVPWGTRPSLFPYDSWGQGTQVTVSS
notes: as for B1
For B2, the “IC50 (read off the curve)” value in assay [5] was around 10 nM. For the same molecule, the IC50 in assay [1] came to 2.42 nM. Further, in [2], the Kd turned out to be 0.638 nM, the koff is 0.00391 s⁻¹ and the kon came to 6.13e+06 M⁻¹ s⁻¹. This molecule also gave an IC50 in assay [4] of 2.56 nM.

B3: 4CTLAPMP02G2 (VHH)
VHH: EVQLVESRGGLVQTGGSLRLSCAASGRTFSNYTMGWFRQAPGKDREFVAAISRSGSLKSYADSVKGRFTISRDNAKKMAYLQMNSLKPEDTAVYYCAAAPVPWGTRPSFFTYDSWGQGTQVTVSS
notes: as for B1
In the case of B3, the “IC50 (read off the curve)” value in assay [5] was around 8 nM. For the same molecule, in assay [1], the concentration for half-maximal inhibition (IC50) was found to be 2.08 nM. In assay [2], binding was put at a Kd of 0.478 nM, the koff turned out to be 0.00355 s⁻¹ and the kon came out at 7.42e+06 M⁻¹ s⁻¹. For the same molecule, in [4], the IC50 was found to be 2.28 nM.

B4: 95G5 (VHH)
VHH: EVQLVESGGGLVQAGGSLRLSCASSGSTFSIDVMGWYRQAPGKVRERVAIIGTGGFPVYADSVKGRFTISRDNAKNTVYLQMNSLKPEDTAVYYCNAARLVALGSWGQGTQVTVSS
notes: Nanobody against B7-H2 (ICOSL)
Broadly, the EC50 (read off the curve) is the concentration needed to bring the measured effect to its halfway point. On to B4, for which the “IC50 (read off the curve)” value in [6] was around 10 nM. In addition, the “EC50 (read off the curve)” value in assay [7] is around 100 nM.

B5: 104E12 (VHH)
VHH: EVQLVESGGGLVQPGGSLRLSCAASGFTFDYYAIGWFRQAPGKAREGVSCISGGDNSTYYADSVKGRFTISRDNAKNTVYLQMNSLKPEDTAVYYCATGGWKYCSGYDPEYIYWGQGTQVTVSS
In the case of B5, the “EC50 (read off the curve)” value in assay [8] was around 10 nM.

B6: 104F5 (VHH)
VHH: EVQLVESGGGLVQPGGSLRLSCAASGFTLDYYAKCWFRQAPGKEREWVSCISSSDGSTYYADSVKGRFTISRDNAKNTVYLQMNSLKPEDTAVYFCAARHGGPLTVEYFFDYWGQGTQVTVSS
For B6, in [8], the 50% effective concentration (EC50 (read off the curve)) is around 3 nM. The “IC50 (read off the curve)” value in assay [9] was around 9 nM.

B7: 95E6 (VHH)
VHH: EVQLVESGGALVQPGGSLRLSCAASGFTLGDYVIGWFRQAPGKEREWVSGISSRDDTTYYANSVKGRFTISRDNAKNTMYLQMNSLKPEDSAVYYCALRSGIAVARAPTNYDYWGQGTQVTVSS
notes: as for B4
For the molecule B7, the binding result in assay [7] was “binds”.

B8: 104D2 (VHH)
VHH: EVQLVESGGGLVQPGGSLRLSCAASGFTLDYYAIGWFRQAPGKEREWASSISSSDGSTYYADSVKGRFTISRDNAKNTVFLQMNSLKPEDTAVYSCAASQAPITIATMMKPFYDYWGQGTQVTVSS
For B8, in assay [8], the “EC50 (read off the curve)” value is 5 to 6 nM. In [9], the “IC50 (read off the curve)” value is around 10 nM.

B9: 103F10 (VHH)
VHH: EVQLVESGGGLVQAGGSLRLSCAASGRTFSSGTMGWFRRAPGKEREFVASIPWSGGRTYYADSVKDRFTISRDNAQNTVFLQMNSLKPEDTAVYYCAFKERSTGWDFASWGQGIQVTVSS
notes: Nanobody against PD-L2
In the case of B9, in assay [10], the “EC50 (read off the curve)” value was around 20 nM.

B10: 104B10 (VHH)
VHH: EVQLVESGGGLVQAGGSLRLSCAASGSTFSQYDVGWYRQAPGKQRELVAFSSSGGRTIYPDSVKGRFTFSRDNTKNTVYLQMTSLKPEDTAVYYCKIDWYLNSYWGQGTQVTVSS
For the molecule B10, in assay [9], the “IC50 (read off the curve)” value was around 20 nM.

B11: CD8086PMP2B4 (VHH)
VHH: EVQLVESGGGLVQAGGSLRLSCAASGSIFSIYTMGWYRQAPGEQRELVAAITSGGSTNYADSVKGRFTISRDNAKNTVYLQMNSLKPEDTAVYYCNAIAHEEGVYRWDFWGQGTQVTVSS
notes: not shown: C-terminal c-myc tag and His6 tag
For the molecule B11, the binding result in assay [11] is given as “binds”.

B12: 103D3 (VHH)
VHH: EVQLVESGGGLVEPGGSLRLSCVASGFTFSSYDMSWVRQAPGKGLEWVSTINSGGGITYRGSVKGRFTISRDNAKNTLYLQMNSLKPEDTAVYYCENGGSSYRRGQGTQVTVSS
notes: Nanobody against PD-L2
As for B12, in assay [12], the “IC50 (read off the curve)” value is around 10 nM. Besides, in assay [10], the “EC50 (read off the curve)” value is around 7 nM.

B13: 103E3 (VHH)
VHH: EVQLVESGGGLVQTGGSLRLSCAASGFTLDYYGIGWFRQAPGKEREGVSFISGSDGSTYYAESVKGRFTISRDKAKNTVYLQMNSLKPEDTAVYYCAADPWGPPSIATMTSYEYKHWGQGTQVTVSS
notes: Nanobody against PD-L2
With B13, the binding result in [10] was “binds”.
